Results as given in the supplement of paper PMC10567573.

B1: STK38L (parent)
chain: NWKETLVFPPEVPISEKAKDLILR

Variants of: B1
Assay: protein stability index of a GFP-peptide fusion (GPS, HEK-293T) (PSI 1-6); higher = more stable
Details: c terminus: a fixed tail appended
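Also: lentivirally expressed fusions sorted by FACS into six bins by GFP to DsRed ratio, PSI derived from sequencing read proportions per bin multiplied by bin number.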

Protein stability index of substitutions, site by site:
I14: T 4.42; A 3.44; F 2.32; D 4.44; R 3.44; H 2.84; M 3.77; N 3.38; L 2.88; Q 3.23; Y 2.1; E 3.53; C 3.19; W 2.05; K 4.07
P13: S 3.92; T 2.44; H 2.9; V 3.67; N 3.27; F 2.35; K 2.46; M 2.36; D 3.4; G 3.1; Y 1.97; L 2.42; R 2.57; E 3.1; C 2.37
P9: K 2.68; H 2.57; W 1.56; F 2.34; D 2.77; Q 4.18; C 2.27; L 2.32; R 2.93; T 2.9; G 1.93; I 2.75; E 2.75; V 2.52; N 2.78; Y 1.96; M 2.05; S 3.06; A 2.69
F8: W 3.5; T 3.58; V 3.75
S15: G 2.92; K 3.09; L 1.84; Q 3.87; N 2.62; R 2.79; P 2.68; V 2.31; Y 2.81; H 2.68; F 2.44; E 4.21; C 3.67; M 3.37; I 1.89; D 4.1; A 2.84; T 3.27; W 2
E11: V 3.03; Q 3.36; I 2.52; S 2.3; T 2.68; L 3.58; N 2.69; G 2.65; F 1.92; D 3.15; H 2.81; M 2.39; R 2.87; Y 2.21; C 2.89; A 2.87; W 2.63
E16: P 3.02; T 2.6; R 2.48; V 3.14; N 3.3; D 3.64; F 2.04; M 1.66; C 2.7; H 2.34; A 2.66; K 2.17; I 2.14; S 2.33; Y 2.5; G 2.31; Q 2.43
V12: Q 2.89; D 3.55; R 3.92; H 2.72; L 2.67; T 2.97; S 3.86; K 3.76; W 3.95; F 3.05; G 2.92; N 3.26; M 3.15; C 2.73; I 3.52; E 3.72; P 3.48; Y 2.62
K17: A 3.17; L 2.15; E 3.32; G 2.8; W 2.41; T 3.7; M 2.85; S 4.07; R 2.8; C 2.81; N 3.37; D 3.89; Y 3.14; P 3.41; V 2.21; F 2.93; I 1.92; Q 3.05; H 2.98
A18: E 4.56; I 1.89; K 3.4; C 2.72; H 2.54; D 3.76; F 3.06; G 3.21; L 1.8
P10: I 2.14; H 3.03; G 2.49; Q 3.3; D 3.43; S 2.6; A 2.65; V 3.02; W 1.78; M 2.8; C 2.81; F 1.8; L 2.81; Y 2.48; T 3.35; K 3.03
